Data taken from patent US20160340420A1 (Novartis, published 2016).

Tests used:
[1] = biological target: T1, biotinylated VEGF (human, UniProt P15692-4 27-191, limits assumed, biotinylated (sites not given)); experiment: competition ELISA with VEGFR2/Fc for biotinylated VEGF; 6% 1008, 9% sucrose, 20 mM citrate, 0.1% PS80, pH 6.25; 2-8 C, 8 weeks
T1 construct: The ELISA paragraph says only 'biotinylated VEGF'; also called human vascular endothelial growth factor A; VEGF-A
Protocol: (§1) The competition ELISA was used for potency testing.
(§2) The samples were stored at 2-8° C., 25° C., 40° C. and light cabinet (LC); they also went through three cycles of freeze-thaw (FT). The samples were pulled according to the schedule shown in Table 30, and analyzed by various analytical methods.

[2] = biological target: T1, biotinylated VEGF; experiment: competition ELISA with VEGFR2/Fc for biotinylated VEGF; 6% 1008, 9% sucrose, 20 mM citrate, 0.1% PS80, pH 6.25; 40 C column, 0 weeks (initial)
Protocol: as §1, §2

[3] = biological target: T1, biotinylated VEGF; experiment: competition ELISA with VEGFR2/Fc for biotinylated VEGF; 6% 1008, 9% sucrose, 20 mM citrate, 0.1% PS80, pH 6.25; 25 C, 8 weeks
Protocol: as §1, §2

[4] = biological target: T1, biotinylated VEGF; experiment: competition ELISA with VEGFR2/Fc for biotinylated VEGF; 6% 1008, 9% sucrose, 20 mM citrate, 0.1% PS80, pH 6.25; 2-8 C, 26 weeks
Protocol: as §1, §2

[5] = biological target: T1, biotinylated VEGF; experiment: competition ELISA with VEGFR2/Fc for biotinylated VEGF; 6% 1008, 9% sucrose, 20 mM citrate, 0.1% PS80, pH 6.25; 25 C, 26 weeks
Protocol: as §1, §2

[6] = biological target: T1, biotinylated VEGF; experiment: competition ELISA with VEGFR2/Fc for biotinylated VEGF; 6% 1008, 9% sucrose, 20 mM citrate, 0.1% PS80, pH 6.25; 25 C, 12 weeks
Protocol: as §1, §2

[7] = biological target: T1, biotinylated VEGF; experiment: competition ELISA with VEGFR2/Fc for biotinylated VEGF; 6% 1008, 9% sucrose, 20 mM citrate, 0.1% PS80, pH 6.25; 2-8 C, 12 weeks
Protocol: as §1, §2

[8] = biological target: T1, biotinylated VEGF; experiment: competition ELISA with VEGFR2/Fc for biotinylated VEGF; control formulation (60 mg/ml 1008, 20 mM citrate, 0.001% PS20, pH 6.25), 5 weeks at 40 C
Protocol: as §1
The control formulation was filtered through 0.2 um syringe filter and stored at 40° C., ambient room temperature, and refrigerator. The samples were pulled at 0, 2 and 5 weeks for 40° C. samples, and 26 weeks for samples stored at ambient room temperature and refrigerator. The selected stability samples were tested for pH, osmolality, content by A280, SEC, IEX CGE and ELISA.

[9] = biological target: T1, biotinylated VEGF; experiment: competition ELISA with VEGFR2/Fc for biotinylated VEGF; 6% 1008, 9% sucrose, 20 mM citrate, 0.1% PS80, pH 6.25; 2-8 C, 0 weeks
Protocol: as §1, §2

[10] = biological target: T1, biotinylated VEGF; experiment: competition ELISA with VEGFR2/Fc for biotinylated VEGF; 6% 1008, 9% sucrose, 20 mM citrate, 0.1% PS80, pH 6.25; 40 C, 4 weeks
Protocol: as §1, §2

T1 sequence (P15692 other isoform, or with tags, fused parts or gaps limits assumed): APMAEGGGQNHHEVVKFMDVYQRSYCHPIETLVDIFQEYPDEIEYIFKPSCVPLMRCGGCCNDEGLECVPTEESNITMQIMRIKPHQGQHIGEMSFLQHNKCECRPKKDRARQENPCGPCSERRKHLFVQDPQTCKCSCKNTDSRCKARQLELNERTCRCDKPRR

B1: 1008 antibody (scFv)
scFv: MEIVMTQSPSTLSASVGDRVIITCQASEIIHSWLAWYQQKPGKAPKLLIYLASTLASGVPSRFSGSGSGAEFTLTISSLQPDDFATYYCQNVYLASTNGANFGQGTKLTVLGGGGGSGGGGSGGGGSGGGGSEVQLVESGGGLVQPGGSLRLSCTASGFSLTDYYYMTWVRQAPGKGLEWVGFIDPDDDPYYATWAKGRFTISRDNSKNTLYLQMNSLRAEDTAVYYCAGGDHNSGWGLDIWGQGTLVTVSS
notes: also called anti-VEGF antibody
- ELISA (relative potency against 1008 reference standard) [1]: 1.2 ratio to 1008 reference standard
- ELISA (relative potency against 1008 reference standard) [2]: 0.86 ratio to 1008 reference standard
- ELISA (relative potency against 1008 reference standard) [3]: 1.1 ratio to 1008 reference standard
- ELISA (relative potency against 1008 reference standard) [4]: 1.1 ratio to 1008 reference standard
- ELISA (relative potency against 1008 reference standard) [5]: 1.1 ratio to 1008 reference standard
- ELISA (relative potency against 1008 reference standard) [6]: 0.92 ratio to 1008 reference standard
- ELISA (relative potency against 1008 reference standard) [7]: 0.97 ratio to 1008 reference standard
- ELISA (relative potency against 1008 reference standard) [8]: 1 ratio to 1008 reference standard
- ELISA (relative potency against 1008 reference standard) [9]: 0.86 ratio to 1008 reference standard
- ELISA (relative potency against 1008 reference standard) [10]: 0.87 ratio to 1008 reference standard
